Experimental data reported in patent US20030068675, “Position dependent recognition of GNN nucleotide triplets by zinc fingers” (published 2003).

Legend:
Assay in all cases: EMSA
Settings in all cases: tags: MBP fusion
ZFP SBS#1022 = molecular target: T1, ZFP SBS#1022 (synthetic)
T1 chain: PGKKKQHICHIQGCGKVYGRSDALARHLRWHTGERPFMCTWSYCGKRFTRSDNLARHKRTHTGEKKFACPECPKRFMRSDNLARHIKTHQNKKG
Method in brief: (§1)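 Purified ZFP was titrated against labeled double-stranded target (1 nM or lower, at least 10-fold below expected Kd) carrying the natural binding site with flanks. Binding buffer was 10 mM Tris pH 7.5, 100 mM KCl, 1 mM MgCl2, 0.1 mM ZnCl2, 5 mM DTT, 10% glycerol, 0.02% BSA, with equilibration for at least 45 min. Bound and free target were separated on a 10% polyacrylamide gel.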

ZFP SBS#1025 = ZFP SBS#1025 (synthetic)
Method in brief: as §1

ZFP SBS#995 = ZFP SBS#995 (synthetic, UniProt P08047)
Method in brief: as §1

ZFP SBS#1024 = molecular target: T2, ZFP SBS#1024 (synthetic, UniProt P08047)
T2 chain: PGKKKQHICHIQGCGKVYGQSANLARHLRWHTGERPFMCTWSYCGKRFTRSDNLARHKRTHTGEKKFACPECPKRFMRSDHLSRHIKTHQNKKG
Method in brief: as §1

ZFP SBS#1027 = molecular target: T3, ZFP SBS#1027 (synthetic, UniProt P08047)
T3 chain: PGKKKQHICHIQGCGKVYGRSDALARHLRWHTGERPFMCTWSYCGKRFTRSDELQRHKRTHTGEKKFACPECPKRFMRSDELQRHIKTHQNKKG
Method in brief: as §1

ZFP SBS#964 = ZFP SBS#964 (synthetic)
Method in brief: as §1

ZFP SBS#1017 = molecular target: T4, ZFP SBS#1017 (synthetic)
T4 chain: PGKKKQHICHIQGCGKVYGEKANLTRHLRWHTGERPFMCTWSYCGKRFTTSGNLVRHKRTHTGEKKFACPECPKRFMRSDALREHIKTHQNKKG
Method in brief: as §1

ZFP SBS#989 = molecular target: T5, ZFP SBS#989 (synthetic)
T5 chain: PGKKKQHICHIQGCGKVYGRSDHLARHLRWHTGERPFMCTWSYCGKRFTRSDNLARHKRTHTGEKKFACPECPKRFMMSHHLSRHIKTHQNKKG
Method in brief: as §1

ZFP SBS#997 = ZFP SBS#997 (synthetic)
Method in brief: as §1

ZFP SBS#999 = ZFP SBS#999 (synthetic)
Method in brief: as §1

ZFP SBS#1026 = molecular target: T6, ZFP SBS#1026 (synthetic)
T6 chain: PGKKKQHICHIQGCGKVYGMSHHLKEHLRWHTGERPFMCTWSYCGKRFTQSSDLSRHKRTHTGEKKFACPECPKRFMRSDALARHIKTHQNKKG
Method in brief: as §1

ZFP SBS#438 = ZFP SBS#438 (synthetic)
Method in brief: as §1

ZFP SBS#368 = ZFP SBS#368 (synthetic)
Method in brief: as §1

ZFP SBS#1016 = molecular target: T7, ZFP SBS#1016 (synthetic)
T7 chain: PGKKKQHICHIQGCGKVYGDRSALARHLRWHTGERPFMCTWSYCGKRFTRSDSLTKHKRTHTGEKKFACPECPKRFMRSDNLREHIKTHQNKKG
Method in brief: as §1

ZFP SBS#996 = molecular target: T8, ZFP SBS#996 (synthetic)
T8 chain: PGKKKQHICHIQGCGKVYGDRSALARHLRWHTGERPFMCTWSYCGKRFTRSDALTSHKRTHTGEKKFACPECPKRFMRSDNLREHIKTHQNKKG
Method in brief: as §1

ZFP SBS#1000 = molecular target: T9, ZFP SBS#1000 (synthetic)
T9 chain: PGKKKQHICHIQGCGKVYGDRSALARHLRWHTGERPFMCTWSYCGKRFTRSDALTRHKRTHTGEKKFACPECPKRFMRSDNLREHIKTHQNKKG
Method in brief: as §1

ZFP SBS#1001 = ZFP SBS#1001 (synthetic)
Method in brief: as §1

ZFP SBS#990 = molecular target: T10, ZFP SBS#990 (synthetic, UniProt P08047)
T10 chain: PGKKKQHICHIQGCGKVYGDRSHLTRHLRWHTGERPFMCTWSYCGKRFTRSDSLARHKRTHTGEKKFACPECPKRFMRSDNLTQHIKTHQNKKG
Method in brief: as §1

ZFP SBS#991 = ZFP SBS#991 (synthetic)
Method in brief: as §1

ZFP SBS#450 = molecular target: T11, ZFP SBS#450 (synthetic)
T11 chain: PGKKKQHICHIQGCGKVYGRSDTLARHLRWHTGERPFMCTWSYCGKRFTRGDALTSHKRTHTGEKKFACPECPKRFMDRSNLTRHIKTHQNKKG
Method in brief: as §1

ZFP SBS#1011 = molecular target: T12, ZFP SBS#1011 (synthetic)
T12 chain: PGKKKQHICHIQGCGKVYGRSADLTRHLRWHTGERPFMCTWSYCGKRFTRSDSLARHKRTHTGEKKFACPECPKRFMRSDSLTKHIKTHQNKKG
Method in brief: as §1

ZFP SBS#988 = ZFP SBS#988 (synthetic)
Method in brief: as §1

ZFP SBS#986 = ZFP SBS#986 (synthetic)
Method in brief: as §1

ZFP SBS#987 = ZFP SBS#987 (synthetic)
Method in brief: as §1

ZFP SBS#1032 = ZFP SBS#1032 (synthetic)
Method in brief: as §1

ZFP SBS#258 = ZFP SBS#258 (synthetic)
Method in brief: as §1

ZFP SBS#1012 = ZFP SBS#1012 (synthetic)
Method in brief: as §1

ZFP SBS#1014 = ZFP SBS#1014 (synthetic)
Method in brief: as §1

ZFP SBS#1007 = ZFP SBS#1007 (synthetic)
Method in brief: as §1

ZFP SBS#1010 = ZFP SBS#1010 (synthetic)
Method in brief: as §1

ZFP SBS#1013 = ZFP SBS#1013 (synthetic)
Method in brief: as §1

ZFP SBS#1019 = ZFP SBS#1019 (synthetic)
Method in brief: as §1

ZFP SBS#1015 = ZFP SBS#1015 (synthetic)
Method in brief: as §1

ZFP SBS#1002 = molecular target: T13, ZFP SBS#1002 (synthetic)
T13 chain: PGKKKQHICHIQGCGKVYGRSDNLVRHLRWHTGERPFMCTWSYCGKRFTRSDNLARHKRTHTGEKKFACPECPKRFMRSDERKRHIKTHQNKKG
Method in brief: as §1

ZFP SBS#1018 = ZFP SBS#1018 (synthetic)
Method in brief: as §1

ZFP SBS#1006 = ZFP SBS#1006 (synthetic)
Method in brief: as §1

ZFP SBS#1009 = molecular target: T14, ZFP SBS#1009 (synthetic)
T14 chain: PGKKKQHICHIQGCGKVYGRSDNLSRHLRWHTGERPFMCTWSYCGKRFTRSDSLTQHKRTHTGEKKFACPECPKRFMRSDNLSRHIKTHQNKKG
Method in brief: as §1

ZFP SBS#1008 = molecular target: T15, ZFP SBS#1008 (synthetic)
T15 chain: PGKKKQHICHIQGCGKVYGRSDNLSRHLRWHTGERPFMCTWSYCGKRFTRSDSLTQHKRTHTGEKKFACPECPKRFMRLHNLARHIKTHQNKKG
Method in brief: as §1

ZFP SBS#994 = ZFP SBS#994 (synthetic)
Method in brief: as §1

ZFP SBS#940 = ZFP SBS#940 (synthetic)
Method in brief: as §1

ZFP SBS#939 = molecular target: T16, ZFP SBS#939 (synthetic)
T16 chain: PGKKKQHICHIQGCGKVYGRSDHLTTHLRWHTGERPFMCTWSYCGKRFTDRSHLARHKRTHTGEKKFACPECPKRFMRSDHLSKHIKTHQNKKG
Method in brief: as §1

ZFP SBS#1018 (synthetic), sequence (chain, as listed by the source): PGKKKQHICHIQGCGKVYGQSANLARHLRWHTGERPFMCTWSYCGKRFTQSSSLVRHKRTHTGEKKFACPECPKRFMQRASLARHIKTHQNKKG
ZFP SBS#258 (synthetic), sequence (chain, as listed by the source): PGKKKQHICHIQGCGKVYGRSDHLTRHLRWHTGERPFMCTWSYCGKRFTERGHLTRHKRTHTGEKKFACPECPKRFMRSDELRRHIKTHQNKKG
ZFP SBS#997 (synthetic), sequence (chain, as listed by the source): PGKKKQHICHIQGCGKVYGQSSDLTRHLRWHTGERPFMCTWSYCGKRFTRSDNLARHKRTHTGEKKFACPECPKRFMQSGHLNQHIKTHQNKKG
ZFP SBS#368 (synthetic), sequence (chain, as listed by the source): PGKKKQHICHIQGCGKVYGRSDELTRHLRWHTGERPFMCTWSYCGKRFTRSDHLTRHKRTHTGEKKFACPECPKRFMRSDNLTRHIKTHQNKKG
ZFP SBS#964 (synthetic), sequence (chain, as listed by the source): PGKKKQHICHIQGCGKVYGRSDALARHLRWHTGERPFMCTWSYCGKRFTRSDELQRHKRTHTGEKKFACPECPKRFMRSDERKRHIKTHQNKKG
ZFP SBS#940 (synthetic), sequence (chain, as listed by the source): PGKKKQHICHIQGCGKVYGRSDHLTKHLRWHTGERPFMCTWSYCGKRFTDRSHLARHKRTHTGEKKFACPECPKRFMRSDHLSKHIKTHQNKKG
ZFP SBS#995, sequence (P08047 other isoform, or with tags, fused parts or gaps): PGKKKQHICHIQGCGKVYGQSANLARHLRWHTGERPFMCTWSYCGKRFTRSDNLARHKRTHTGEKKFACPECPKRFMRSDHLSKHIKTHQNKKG
ZFP SBS#986 (synthetic), sequence (chain, as listed by the source): as the sequence (P08047 other isoform, or with tags, fused parts or gaps) above, with A22S, A25Q, R50Q, D52S, N53D, A55Q, R78M, D80H, K84R counted along it
ZFP SBS#991 (synthetic), sequence (chain, as listed by the source): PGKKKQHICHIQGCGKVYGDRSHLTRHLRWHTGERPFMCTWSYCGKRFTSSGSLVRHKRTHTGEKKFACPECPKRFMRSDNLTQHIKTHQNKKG
ZFP SBS#1001 (synthetic), sequence (chain, as listed by the source): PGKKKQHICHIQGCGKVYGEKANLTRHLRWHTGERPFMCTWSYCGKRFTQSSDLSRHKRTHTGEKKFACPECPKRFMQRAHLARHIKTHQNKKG
ZFP SBS#1012 (synthetic), sequence (chain, as listed by the source): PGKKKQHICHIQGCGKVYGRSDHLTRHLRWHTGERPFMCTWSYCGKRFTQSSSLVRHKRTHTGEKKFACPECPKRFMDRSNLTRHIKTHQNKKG
ZFP SBS#988 (synthetic), sequence (chain, as listed by the source): as the sequence (P08047 other isoform, or with tags, fused parts or gaps) above, with Q20T, A22G, A25V, R50Q, D52S, N53D, A55Q, R78M, D80H, K84R counted along it
ZFP SBS#1015 (synthetic), sequence (chain, as listed by the source): as the sequence (P08047 other isoform, or with tags, fused parts or gaps) above, with Q20R, A22D, A25V, H81T, S83K counted along it
ZFP SBS#1010 (synthetic), sequence (chain, as listed by the source): as the sequence (P08047 other isoform, or with tags, fused parts or gaps) above, with A22S, A25Q, R50Q, D52G, N53H, A55T, H81N, S83A, K84R counted along it
ZFP SBS#1006 (synthetic), sequence (chain, as listed by the source): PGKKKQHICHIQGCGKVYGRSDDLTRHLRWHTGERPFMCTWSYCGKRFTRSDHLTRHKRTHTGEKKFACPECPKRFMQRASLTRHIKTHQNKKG
ZFP SBS#1032 (synthetic), sequence (chain, as listed by the source): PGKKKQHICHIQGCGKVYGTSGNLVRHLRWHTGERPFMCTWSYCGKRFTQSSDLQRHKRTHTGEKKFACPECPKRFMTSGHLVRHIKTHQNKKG
ZFP SBS#999 (synthetic), sequence (chain, as listed by the source): as the sequence (P08047 other isoform, or with tags, fused parts or gaps) above, with A22S, N23D, A25T, R78Q, D80G, H81K, S83T, K84Q counted along it
ZFP SBS#1025 (synthetic), sequence (chain, as listed by the source): as the sequence (P08047 other isoform, or with tags, fused parts or gaps) above, with A22S, N23A, A25T, R50Q, D52S, N53S, A55V, H81T, S83T, K84Q counted along it
ZFP SBS#1019 (synthetic), sequence (chain, as listed by the source): as the sequence (P08047 other isoform, or with tags, fused parts or gaps) above, with Q20R, A22D, S83T, K84Q counted along it
ZFP SBS#1007 (synthetic), sequence (chain, as listed by the source): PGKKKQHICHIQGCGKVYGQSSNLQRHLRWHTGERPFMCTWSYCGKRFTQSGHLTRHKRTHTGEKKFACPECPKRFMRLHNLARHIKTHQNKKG

B1: GAGGAGGTG (dsDNA)
DNA 1: GAGGAGGTG
DNA 2: CACCTCCTC
B1 showed a Kd (ZFP SBS#1022) of 0.01 nM and a Kd (ZFP SBS#1025) of 0.115 nM.

B2: GGGGAGGAA (dsDNA)
DNA 1: GGGGAGGAA
DNA 2: TTCCTCCCC
For B2, the Kd (ZFP SBS#995) was 0.08 nM and the Kd (ZFP SBS#1024) was 0.08 nM.

B3: GCGGCGGTG (dsDNA)
DNA 1: GCGGCGGTG
DNA 2: CACCGCCGC
B3 gave a Kd (ZFP SBS#1027) of 0.054 nM and a Kd (ZFP SBS#964) of 0.041 nM.

B4: CTGGATGAC (dsDNA)
DNA 1: CTGGATGAC
DNA 2: GTCATCCAG
B4 showed a Kd (ZFP SBS#1017) of 0.233 nM.

B5: GGTGAGGGG (dsDNA)
DNA 1: GGTGAGGGG
DNA 2: CCCCTCACC
B5 showed a Kd (ZFP SBS#989) of 1.9 nM.

B6: AGAGAGGCT (dsDNA)
DNA 1: AGAGAGGCT
DNA 2: AGCCTCTCT
In the case of B6, the Kd (ZFP SBS#997) is reported as 1.65 nM and the Kd (ZFP SBS#999) is reported as 0.6 nM.

B7: GTGGCTTGT (dsDNA)
DNA 1: GTGGCTTGT
DNA 2: ACAAGCCAC
B7 gave a Kd (ZFP SBS#1026) of 0.076 nM.

B8: GAGGGGGCG (dsDNA)
DNA 1: GAGGGGGCG
DNA 2: CGCCCCCTC
Work on B8 yielded a Kd (ZFP SBS#438) of 62.5 nM and a Kd (ZFP SBS#368) of 3.5 nM.

B9: CAGTTGGTC (dsDNA)
DNA 1: CAGTTGGTC
DNA 2: GACCAACTG
Work on B9 yielded a Kd (ZFP SBS#1016) of 0.09 nM, a Kd (ZFP SBS#996) of 9.6 nM and a Kd (ZFP SBS#1000) of 11.2 nM.

B10: GGAGCTGAC (dsDNA)
DNA 1: GGAGCTGAC
DNA 2: GTCAGCTCC
In the case of B10, the Kd (ZFP SBS#1001) is reported as 1.8 nM.

B11: AAGGTGGGC (dsDNA)
DNA 1: AAGGTGGGC
DNA 2: GCCCACCTT
In the case of B11, the Kd (ZFP SBS#990) is reported as 5.35 nM and the Kd (ZFP SBS#991) is reported as 0.06 nM.

B12: GACTTGGTGC (dsDNA)
DNA 1: GACTTGGTGC
DNA 2: GCACCAAGTC
Work on B12 yielded a Kd (ZFP SBS#450) of 130 nM.

B13: TTGGTGGCG (dsDNA)
DNA 1: TTGGTGGCG
DNA 2: CGCCACCAA
For B13, the Kd (ZFP SBS#1011) was 0.03 nM.

B14: GGTGCTGAT (dsDNA)
DNA 1: GGTGCTGAT
DNA 2: ATCAGCACC
B14 was tested, and the Kd (ZFP SBS#988) was 0.15 nM, the Kd (ZFP SBS#986) was 1.6 nM and the Kd (ZFP SBS#987) was 33.5 nM. It also gave a Kd (ZFP SBS#1032) of 0.52 nM.

B15: GCGGGCGGG (dsDNA)
DNA 1: GCGGGCGGG
DNA 2: CCCGCCCGC
B15 was tested, and the Kd (ZFP SBS#258) was 15 nM.

B16: GACGTAGGG (dsDNA)
DNA 1: GACGTAGGG
DNA 2: CCCTACGTC
Binder B16 has a Kd (ZFP SBS#1012) of 0.032 nM and a Kd (ZFP SBS#1014) of 0.01 nM.

B17: GAGAGAGAT (dsDNA)
DNA 1: GAGAGAGAT
DNA 2: ATCTCTCTC
B17 showed a Kd (ZFP SBS#1007) of 167 nM, a Kd (ZFP SBS#1010) of 8.2 nM and a Kd (ZFP SBS#1013) of 0.15 nM.

B18: AGGGAGGAG (dsDNA)
DNA 1: AGGGAGGAG
DNA 2: CTCCTCCCT
Binder B18 has a Kd (ZFP SBS#1019) of 0.022 nM.

B19: GCGGAGGAG (dsDNA)
DNA 1: GCGGAGGAG
DNA 2: CTCCTCCGC
In the case of B19, the Kd (ZFP SBS#1015) is reported as 0.008 nM and the Kd (ZFP SBS#1002) is reported as 0.028 nM.

B20: GTAGTAGAA (dsDNA)
DNA 1: GTAGTAGAA
DNA 2: TTCTACTAC
In the case of B20, the Kd (ZFP SBS#1018) is reported as 7.2 nM.

B21: GTAGGGGCG (dsDNA)
DNA 1: GTAGGGGCG
DNA 2: CGCCCCTAC
Work on B21 yielded a Kd (ZFP SBS#1006) of 0.898 nM.

B22: GAGATGGAG (dsDNA)
DNA 1: GAGATGGAG
DNA 2: CTCCATCTC
Work on B22 yielded a Kd (ZFP SBS#1009) of 1.9 nM and a Kd (ZFP SBS#1008) of 0.4 nM.

B23: GGGGGCTGG (dsDNA)
DNA 1: GGGGGCTGG
DNA 2: CCAGCCCCC
Binder B23 has a Kd (ZFP SBS#994) of 0.03 nM, a Kd (ZFP SBS#940) of 1.5 nM and a Kd (ZFP SBS#939) of 0.352 nM.
